In publication PMC6531784, “Discovering metabolic disease gene interactions by correlated effects on cellular morphology” (Molecular Metabolism, 2019):
Where “and” joins values, the source holds several entries; their conditions need not be identical. Equal entries are not always repeated.

T1: seipin-Myc, Q96G97
T1 chain: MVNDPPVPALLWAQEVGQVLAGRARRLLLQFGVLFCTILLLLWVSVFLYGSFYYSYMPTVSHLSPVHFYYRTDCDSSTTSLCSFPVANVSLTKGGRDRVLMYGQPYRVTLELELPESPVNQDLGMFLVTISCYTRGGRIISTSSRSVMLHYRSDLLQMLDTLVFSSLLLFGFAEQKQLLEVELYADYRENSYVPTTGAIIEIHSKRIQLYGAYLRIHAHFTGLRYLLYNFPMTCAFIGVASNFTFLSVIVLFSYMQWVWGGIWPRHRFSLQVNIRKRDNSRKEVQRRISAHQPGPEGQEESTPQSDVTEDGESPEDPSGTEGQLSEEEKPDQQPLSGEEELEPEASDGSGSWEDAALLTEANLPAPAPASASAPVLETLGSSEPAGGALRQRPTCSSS

T2: seipin-Myc (UniProt Q96G97 1-398)
T2 construct: seipin (product of BSCL2) in the pcDNA3.1 MycHis vector; also called seipin dodecamers; not shown: Myc, C-terminal, kept; copies: 12
T2 sequence (looked up): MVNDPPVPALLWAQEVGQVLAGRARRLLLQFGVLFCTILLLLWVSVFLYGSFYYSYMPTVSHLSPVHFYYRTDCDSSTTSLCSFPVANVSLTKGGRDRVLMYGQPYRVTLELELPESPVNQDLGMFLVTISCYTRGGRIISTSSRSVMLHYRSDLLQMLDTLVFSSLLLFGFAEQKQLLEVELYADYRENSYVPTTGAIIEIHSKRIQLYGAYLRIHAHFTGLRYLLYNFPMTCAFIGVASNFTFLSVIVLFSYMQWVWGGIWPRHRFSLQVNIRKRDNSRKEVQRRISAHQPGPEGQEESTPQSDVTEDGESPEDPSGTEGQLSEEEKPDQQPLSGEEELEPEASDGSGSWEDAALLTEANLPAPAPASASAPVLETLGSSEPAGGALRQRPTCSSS

B1: seipin-Myc, Q96G97 1-398 (natural protein)
chain: MVNDPPVPALLWAQEVGQVLAGRARRLLLQFGVLFCTILLLLWVSVFLYGSFYYSYMPTVSHLSPVHFYYRTDCDSSTTSLCSFPVANVSLTKGGRDRVLMYGQPYRVTLELELPESPVNQDLGMFLVTISCYTRGGRIISTSSRSVMLHYRSDLLQMLDTLVFSSLLLFGFAEQKQLLEVELYADYRENSYVPTTGAIIEIHSKRIQLYGAYLRIHAHFTGLRYLLYNFPMTCAFIGVASNFTFLSVIVLFSYMQWVWGGIWPRHRFSLQVNIRKRDNSRKEVQRRISAHQPGPEGQEESTPQSDVTEDGESPEDPSGTEGQLSEEEKPDQQPLSGEEELEPEASDGSGSWEDAALLTEANLPAPAPASASAPVLETLGSSEPAGGALRQRPTCSSS
B2: FLAG-perilipin (in tsA 201 cells) (natural protein, UniProt O60240 1-522, looked up)
chain: MAVNKGLTLLDGDLPEQENVLQRVLQLPVVSGTCECFQKTYTSTKEAHPLVASVCNAYEKGVQSASSLAAWSMEPVVRRLSTQFTAANELACRGLDHLEEKIPALQYPPEKIASELKDTISTRLRSARNSISVPIASTSDKVLGAALAGCELAWGVARDTAEFAANTRAGRLASGGADLALGSIEKVVEYLLPPDKEESAPAPGHQQAQKSPKAKPSLLSRVGALTNTLSRYTVQTMARALEQGHTVAMWIPGVVPLSSLAQWGASVAMQAVSRRRSEVRVPWLHSLAAAQEEDHEDQTDTEGEDTEEEEELETEENKFSEVAALPGPRGLLGGVAHTLQKTLQTTISAVTWAPAAVLGMAGRVLHLTPAPAVSSTKGRAMSLSDALKGVTDNVVDTVVHYVPLPRLSLMEPESEFRDIDNPPAEVERREAERRASGAPSAGPEPAPRLAQPRRSLRSAQSPGAPPGPGLEDEVATPAAPRPGFPAVPREKPKRRVSDSFFRPSVMEPILGRTHYSQLRKKS
notes: perilipin (product of PLIN1) in the pCMV3xFLAG vector; Same construct as m7, other host cells

How the values were obtained:
[1] = target: T1, seipin-Myc, Q96G97; assay: atomic force microscopy; proteins co-expressed in tsA 201 cells, isolated by anti-Myc immunoaffinity chromatography, imaged in tapping mode in air; particle volumes from heights and radii; conditions: remark: other sources report otherwise
[2] = target: T2, seipin-Myc; assay: as above; conditions: partners not purified

| Binder | stoichiometry N [1] | stoichiometry N [2] |
| --- | --- | --- |
| B1 | 12 | – |
| B2 | – | 1 perilipin per seipin dodecamer and 2 perilipin per seipin dodecamer |
